In the DeepSol protein solubility set:

Assay: soluble on expression in E. coli; label from the status in PepcDB or PDB records

MSLTEIGIVAVGGYNEMGRNMTAIIIGEDIVILDMGLRLDRVQIHEDVEIDKMHSLELIEMGAIPDDTIMKEINGTVRAIVCTHGHLDHIGAIPKLAHRYNAPILATPYTAAIIRQQIESERKFEVCNRVIPLQAGGTYQVTEDISIEFIRVQHSIIDCVLAAVHTPAGAVLYACDFKLDRTPTMGEAPDFDRFKSLGKEGVIAMITESTNAGRSGKTPSEQIAKDMVRDVLLGTEESGVGMIVTTFASHIARLKAIIEAAEEMGRIPVLMGRSMERYVGAARDIGYLDLPSNVEIYGTRKDVDRAFKRIMQEGKNKYLPIVTGHQGEPGSILVRVANGETPYTIDPGDRIIFSANVIPSPMTQANRYALETKLRMKGGRIYDDVHVSGHAYREDHWELLRMVNPEHVIPAHGDMEMHGHYIEMAEDAGYVLGDTVHLLRNGEVLYIEEEGHHHHHH
soluble on expression in E. coli: soluble

MQLSRQDEPLYLGLAETLRDELAGYQPGDYLPAEFQLAERFSVNRHTIRRAVDELVREGSVLRRQGKGTQVLERPLIYPMQADSAYSQSLSAQGVGVEAILLLRRECQASHEDALHLGLAEHAPVIELQTLRKLDGQAVSLIFHRYSAVYHELLADYQGGSVRQYLAECGLPLSRAQSLIGARLPSREEAGLLLMPRHMPALTVLTVSCDGAGQPVELSRSVSRSDRFQYQVATAIPTR
soluble on expression in E. coli: not soluble

MADIPLSGKPRTQVLRWQRQNWVAGLRWEEKQKSVRRAPVQRRGVLNVVLTVKQGKSRLTALGQIEAGWRHQKLYSLAALFSQQCTPNGYGVYQLDDGRQVFLATVKGMPSPMADVIGTPDQIIRARELFLSFNPAPEDGWTIPSSPEFPLSWNTLVGQVSSAQLRFARVAGVSNPLRPYGAGVLSVAALLGGAVWWSRLPEPPVAPVVQELPAPVQDVFKKTPEPVYLPHPWADMPVARHFLNRCQRWRAAVPVSLDRWRLERIRCSAEGLETVYQRQPGGTAAGFAERVKQVFKRTPVFNLVSGGNEGVVFIPWAKFTLQDETAPDAGTQLMQAVSWFQSRQVSFSLSLEHHHHHH
soluble on expression in E. coli: not soluble

MLNSWPLAKDLQVLVEIVHSGSFSAAAATLGQTPAFVTKRIQILENTLATTLLNRSARGVALTESGQRCYEHALEILTQYQRLVDDVTQIKTRPEGMIRIGCSFGFGRSHIAPAITELMRNYPELQVHFELFDRQIDLVQDNIDLDIRINDEIPDYYIAHLLTKNKRILCAAPEYLQKYPQPQSLQELSRHDCLVTKERDMTHGIWELGNGQEKKSVKVSGHLSSNSGEIVLQWALEGKGIMLRSEWDVLPFLESGKLVQVLPEYAQSANIWAVYREPLYRSMKLRVCVEFLAAWCQQRLGKPDEGYQVM
soluble on expression in E. coli: soluble

GDSQDFSSSQSTSPVVHHRPIDQIALSTFEDTTPLKTDEVEQAWEHTQITYVDLRTGAHLGSGAERLARASLSLSKLYIADYVFDHGTQKEKEQAVEMIRKSDDDIADKLFDAYPNCIDSVAKKYQLEATQTYGRWG
soluble on expression in E. coli: not soluble

MNVWLLGRGELRRRHDDVLQLERAFLTDRTGLHFVNARSSEDLLALAESRRAEQQWPVLDAEWISPVGTDTCDDLVWQNLESTLDGRPDTFYSTAGFEAGNTLSGTGELAPGEAFLAYRFWRPVRVYAVQLRAFQADFHPGRPVYPFQVARVGVGCSLQAGMSLSYGADASAPGTSCNYRCFCTTEQQTLVFDDPMVGVYLVICLKGFPQQQLTDRLHYAAVSGIRVFGEPISSPALENELSCLISRGFILDGRDAARWLDLRSAQEHAAPMHIPEDEVI
soluble on expression in E. coli: not soluble

KAPFLILMHRNPDPDAMASAMALKTIFDKWGVSSEIAYGGKIGYDENKAMVNLLSIKLNPIDEINLSRYCSIAVVDSSSSKTLPIDVEDSKLSVIIDHHNDSDIVAKYMDILPEIGATATILTKYLLELEIAPNRDLATALYYAITSDTNYFKRKTSKKDFEAASYLQGLMDPKVLEMIENPDM
soluble on expression in E. coli: not soluble

NTITVSELLELIKKEDVIIVDTRSPREFKEETLPGAINIPLFLDDEHALIGKTYKQESREKAIEIATDIVEKSLKRILNEAKKLDRDKLIVVFCARGGMRSQTMALILQLLGFKVKRLIGGFKAFKHAVDK
soluble on expression in E. coli: not soluble

MSRLSEPSPYVEFDRRQWRALRMSTPLALTEEELVGLRGLGEQIDLLEVEEVYLPLARLIHLQVAARQRLFAATAEFLGEPQQNPDRPVPFIIGVAGSVAVGKSTTARVLQALLARWDHHPRVDLVTTDGFLYPNAELQRRNLMHRKGFPESYNRRALMRFVTSVKSGSDYACAPVYSHLHYDIIPGAEQVVRHPDILILEGLNVLQTGPTLMVSDLFDFSLYVDARIEDIEQWYVSRFLAMRTTAFADPESHFHHYAAFSDSQAVVAAREIWRTINRPNLVENILPTRPRATLVLRKDADHSINRLRLRKL
soluble on expression in E. coli: soluble

METSNFVKQLSSNNRKTRVNALEALKKYLTAKQFKENKQIEFNKLWKGLYYAMWFSDRPRPQQRLANELGELHGLYFDPKDNSTADELTTNDKAFIKFSRGFWKVMCFEWFNIDRYRLDKYLLLIRRVLFSQLKYLQSRNWDKKLVDEYIKKVLRWLPLSGSPKVYTGIPIHIVDILLDEWERLLKDGDEDDEDEENKEEEMRKIAESAKKTPLADVIAIFQDIVADYNNSKVLREKIKEDLFSDTRLVSWDILEGETQHNDSSNESEEEEEEEWKGF
soluble on expression in E. coli: not soluble

MGHHHHHHSHMGVTCVSQMPVAEGKSVQQTVELLTRKLEMLGAEKQGTFCVDCETYHTAASTLGSQGQTGKLMYVMHNSEYPLSCFALFENGPCLIADTNFDVLMVKLKGFFQSAKASKIETRGTRYQYCDFLVKVGTVTMGPSARGISVEVEYGPCVVASDCWSLLLEFLQSFLGSHTPGAPAVFGNRHDAVYGPADTMVQYMELFNKIRKQQQVPVAGIR
soluble on expression in E. coli: soluble

MIGFAACECIIYNARSLKDKRAVLQRVMTRIRQKYNVSVAEIDHQDAWQRATIGLVAITSSRRATERELERALALIDSFPELERAATSFEWL
soluble on expression in E. coli: not soluble

MGMKFLNKKGWHTGSLRNIETVWKAEQKQEAEQKKLEELRLQILQERERSEFRALQEQAGLIPRQERLEFLYDSGLAVGKGSASGSGVSFQKEEQPLAKSEAGSSASEKPDQSAPGALFEEKAQSANDSWRKLHSDPLLLIRQREQEALAKIKNNPVKMALIRKSVEEKGKGKDGDTKEHKKKHKRKSGKHQKQSSSRQRSDSEEDSGEENNGRKSHHQKTSGTHDRHYERPRSDLEDESKGRESRDRHYEKRRSELDDGHKRRERHDTHYERRRSEMDDESKRRESRDNHYERRRSDLDDESKRRESHDKHFERQRSDLDDEYKRRESQDKRRRSDIDDEPKRRDARPNEKYRNRSPKGGVERENLKSYGQEDKKRKAEDLDSGKPNEYQNRRRKGGSKLSEEERAARLKQMQMDAEVHEEQRWTRLKKADETDAVEADKNKVSTGKSFLDDANKSVYGVEKGGSSTIEESVRRRSYYSQRGTAAEGNAFRR
soluble on expression in E. coli: not soluble

MSLSLPLFYAPDIEQSDRLPDDEAGHILRVLRMQAGDRLRLTDGRGSFFDAVIETADRKSCYVSVCGQESWQKPWRDRITIAIAPTKQSERMEWMLEKLVEIGVDEVVFIESEHSERRRIKAERLERIAISAMKQSLKASFPVIRVNIPIQTVIADTPKAAVRLIAYVDEAVRAEITQGRGYPSDFYHVGQDVLILIGPEGDFSPSEVESALLAGFAPVSLGESRLRTETAGLVACQWIHTLQACYRIGEGHHHHHH
soluble on expression in E. coli: soluble

MGVKRKKMGKVAGFTEWTAEDLEAFRARWPIGTAQRLALELYQWTGARCVDVIRLGPQMVGRDGVLTYVQQKTGNPAHVPWTCPAFGLEEQRADLMRCLPVGSPVYMLTEYGKPRTQKGVSQWFSAAAREAGLESRTAHGLRKYRMNALAEHGASVLVMQSWVGHTTLLEVQEYTRRADRRRVISGGHPVKRDPAGAAAALEHHHHHH
soluble on expression in E. coli: soluble

MSLDRILTFDCYGTLIDTKPVFDAISNIAKNNILNSKDAVNIYVNYEDRLMYGETYIPYDKLIKQVLEYCDMELVTNVFSKSYDEIISVHKRLKPFKEVVESLEKIHKKGYELALMSNSVHDIIDYNLDALGNVFNNVFLSEDIHAYKPQLKFFKYVEERLELKQKKHCHIAKGYWWDIVPCSKLGWRKIWVNRENKKGNKCHEPYEEVHTLDEVINLIEGHHHHHH
soluble on expression in E. coli: soluble

KIVAVTACPTGIAHTYMAADALMKAAPKHNVQIKVETQGAMGIENQLTPHDIAQADRVLIVSDIEIEQPGRFEGTRKIQIPIEEVLLNVDKVFL
soluble on expression in E. coli: not soluble

MKQPFERILREICFMVKVEGRKVLRDFGITPAQFDILQKIYFEGPKRPGELSVLLGVAKSTVTGLVKRLEADGYLTRTPDPADRRAYFLVITRKGEEVIEKVIERRENFIEKITSDLGKEKSSKILDYLKELKGVMERNFSKQ
soluble on expression in E. coli: soluble

LLESRELVEKIVSILEEKKAKDLNIIDIREISILADYFVICSGTSTTHIKTLADEVEEKMLEAGIELLHKEGYNSARWILLDYGEVVVHIFHEEDRQFYNLERLWADGVMKHRQ
soluble on expression in E. coli: soluble

MPGLPEVAPGDDLAKLIAAVEPGLVDGDVLLVTSKIVSKAEGRIVRADDREAAIDAETVRVVARRGALRIVENRQGLVMAAAGVDASNTPSGTVLLLPEDPDASARAIRDGLRDTLGVDVGVVVTDTFGRPWRTGLTDVAIGAAGVRVLDDLRGGTDAYGNPLSATVVATADELAAAGDLVKGKAAGLPVAVVRGLPHVIAGDDEAGARAMVRGGRDDMFRLGTSEAVREAVTQRRTVRAFTDEPVDPGAVRRAVAAAVTAPAPHHTTPWRFVLLESAESRTRLLDAMRDAWIADLRGDRKTEESIAKRVRRGDVLRNAPYLVVPCMVMDGSHSYGDARRDAAEREMFVVATGAGVQNFLVALAGERLGSAWVSSTMFCRDVVRRALGLPESWEPMGAVAVGHAAEEPRDRPARDAGAFIEVRLEHHHHHH
soluble on expression in E. coli: soluble

MLYDVVGVRFKKAGKVYYFDPNQFDISENEFVIVETVRGIEYGKVVITKKQVDENDVVLPLKKVIRIANENDRTIVEENKHAAKEAYQVCQQKVVEHNLDMKLVDVEYTFDRNKIIFYFTADGRIDFRELVKDLAAIFRTRIELRQIGVRDEAKMLGGIGPCGRMLCCSTFLGDFEPVSIKMAKDQNLSLNPAKISGLCGRLMCCLKYENDEYEAAKEQLPDLDQRIQTPHGTGRVIGLNILERLIQVELVDKERIVEYTLDELVNKGLEHHHHHH
soluble on expression in E. coli: soluble

MKMLEQLEKKLGYTFKDKSLLEKALTHVSYSKKEHYETLEFLGDALVNFFIVDLLVQYSPNKREGFLSPLKAYLISEEFFNLLAQKLELHKFIRIKRGKINETIIGDVFEALWAAVYIDSGRDANFTRELFYKLFKEDILSAIKEGRVKKDYKTILQEITQKRWKERPEYRLISVEGPHHKKKFIVEAKIKEYRTLGEGKSKKEAEQRAAEELIKLLEESE
soluble on expression in E. coli: soluble

MAHHHHHHMLLLKRPFLPARVAPLCAQRKVSRLITYYTKSHEYIKINDEDLTELKKKNNVKCKIGISNYGTEKLGEIVYIDISQNINEYVKKGECIATVESVKSVGDVYTPISGQIVDINNEIVDNVNLMNGNSESDGWILELLTNDVNEKEIMSFSEYKKMCEEEEQREATKIQQSERDCLEEKNKNKIFDLNDIKNIEEKTKK
soluble on expression in E. coli: soluble

MGSDKIHHHHHHMSIDTITLQCFLAVAETQSFTKAAQRVGRTQSAISQQIAKLENLIEKPLINRGRELSLTTDGEIFLGYAKRIYELHRESLDRFKAPELQGEIRFGLPEDFASIILSDVLVEFSRLHPRVLLNVECDLTLNLIERFNEGKFDLILIKTTQQQVGSESIYVCTEPVEWIGKKELLPLLDKPGPIPLVLSPTPCVYRGNVIDTLDKNHIDWRLVYSSASYAGKMAAVRAGLGITAIQRSMIPNYLERLDYDFLPILNDVHVSLLKKSGSNKAIESLEFFILQKLKY
soluble on expression in E. coli: not soluble
